Reference: publication PMC11947619, “Molecular mechanism of Mad2 conformational conversion promoted by the Mad2‐interaction motif of Cdc20” (Protein Science : A Publication of the Protein Society, 2025)

Columns and labels:
O‐Mad2 = conditions: in vitro, ref Lad et al., [2009], Simonetta et al.; cited from earlier work
Text: Juxtaposing the accessible Cdc20^MIM adjacent to O‐Mad2 by the MCC‐assembly scaffold involves the dimerization of an O‐Mad2 molecule with Mad1‐bound C‐Mad2 (Chen et al., [2023]; Fischer et al., [2022]; Lara‐Gonzalez et al., [2021]; Piano et al., [2021]).

[1] = Spontaneous O-Mad2 to C-Mad2 conversion / stability of the open state; assay type: physicochemical; conditions: NMR backbone assignment samples
Protocol: FIGURE 2 NMR fingerprinting of Mad2. (a) Structural orientations of Trp75 (on the αB helix) and Trp167 (on the “safety‐belt”) in Mad2 produce distinct indole NH resonances. […] NMR spectra for O‐Mad2^R133A and “empty” C‐Mad2^L13A/R133A and C‐Mad2^R133A:Cdc20^MIM‐111‐138 are from Fischer et al. ([2022]) (c) Mad2 conversion rates vary with different MIM peptides. Conversion was traced over 24 h at 25°C using the Trp75 and Trp167 side‐chain resonances as reporters. MIM peptides were added at two‐fold molar excess to Mad2 (100 μM). Each spectrum required 12 min of acquisition time, therefore the 15 min time‐points represent the earliest spectra in the time‐resolved series. The schematics show the conformation of Mad2 as indicated by the tryptophan side‐chain resonances. A black tick marks when conversion is considered complete. NMR data for O‐Mad2^R133A with and without Cdc20^MIM‐111‐138 shown are from Fischer et al. ([2022]). In the case of full‐length Cdc20, the MIM sequence is sequestered by an auto‐inhibitory intramolecular interaction within Cdc20 itself, which prevents it from being readily accessible for binding to C‐Mad2 (Piano et al., [2021]). Conversely, isolated MIM peptides lack this auto‐inhibitory mechanism, allowing them to bind directly to C‐Mad2 without obstruction. […]

Molecule	enhancement of O-Mad2 to C-Mad2 conversion rate by dimerization with C-Mad2 (O‐Mad2) [fold]	limited stability (slow O-Mad2 to C-Mad2 conversion) [1] [days]
C‐Mad2: Mad2 in the closed active state	3 to 4	–
Mad2^LL: loop‐less Mad2: residues 109–117 (…) replaced with GSG (protein, left off: His6, N-terminal, state not stated | DoubleStrep, N-terminal, state not stated, loop‐less Mad2: residues 109–117 (…) replaced with GSG) MALQLSREQGITLRGSAEIVAEFFSFGINSILYQRGIYPSETFTRVQKYGLTLLVTTDLELIKYLNNVVEQLKDWLYKCSVQKLVVVISNIESGEVLERWQFDIECDKGSGEKSQKAIQDEIRSVIRQITATVTFLPLLEVSCSFDLLIYTDKDLVVPEKWEESGPQFITNSEEVRLRSFTTTIHKVNSMVAYKIPVND	–	< 3
